Data: paper PMC3457783

Target: TRα1PV (mutated thyroid hormone receptor α1 carrying the PV mutation) (UniProt P10827)
Assay: co-IP

fold NCoR1 co-precipitated relative to TRβ1PV (before induction): 1.6 fold
fold NCoR1 co-precipitated relative to TRβ1PV (day 6 after induction): 2 fold
Substance: nuclear receptor corepressor, NCoR1 (from UniProt Q60974 1-2453) (natural protein)
